Experimental data from patent US20160090416A1 (NUMAB, published 2016).

What was measured:
[1] = target: human CD3ε expressed on the cell surface of T cells (Jurkat clone E6-1; human CD8+ T cells) (human) (UniProt P07766); test: cell-based or functional assay
[2] = target: T1, human heterodimeric single-chain CD3εγ extracellular domain (human, UniProt P07766 23-126; P09693 23-116); test: SPR (MASS-1), human scCD3εγ ECD immobilized, scDb injected
T1 construct: extracellular domain; Produced in-house; single-chain protein of the extracellular domains of CD3ε and CD3γ joined by a flexible linker; also called scCD3γε; human CD3ge

[3] = target: T2, human CD3ε expressed on the cell surface of T cells (Jurkat clone E6-1; human CD8+ T cells) (human, UniProt P07766 23-207); test: cell-based or functional assay
[4] = target: T2, human CD3ε expressed on the cell …; test: cell-based or functional assay; remark: listed apart in the source

Sequence of human CD3ε expressed on the cell surface of T cells (Jurkat clone E6-1; human CD8+ T cells) (human) (P07766 23-207): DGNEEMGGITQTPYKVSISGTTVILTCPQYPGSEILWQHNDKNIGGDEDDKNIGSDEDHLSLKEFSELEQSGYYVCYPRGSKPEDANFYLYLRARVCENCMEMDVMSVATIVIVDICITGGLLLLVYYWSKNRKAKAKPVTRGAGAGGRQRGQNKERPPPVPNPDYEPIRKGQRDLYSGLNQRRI
T2 sequence (P07766 23-207): as above
T1 sequence (P07766 23-126, chain 1 of 2): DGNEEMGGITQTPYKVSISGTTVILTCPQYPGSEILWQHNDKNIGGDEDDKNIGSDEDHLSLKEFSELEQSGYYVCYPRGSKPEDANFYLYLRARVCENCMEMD
T1 sequence (P09693 23-116, chain 2 of 2): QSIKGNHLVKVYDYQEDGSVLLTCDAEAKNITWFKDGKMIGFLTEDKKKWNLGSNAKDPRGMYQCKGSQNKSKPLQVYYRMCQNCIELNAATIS

Kd [2] [nM] | Fold increase in CD69 expression [MFI normalized to neg. ctrl.], 1.25 µg/ml anti-CD3 IgG, cross-linked, Jurkat cells, 24 h [3] [fold] | Fold increase in CD69 expression [MFI normalized to neg. ctrl.], 5 µg/ml anti-CD3 IgG, cross-linked, Jurkat cells, 24 h [3] [fold] | Fold increase in CD69 expression [MFI normalized to neg. ctrl.], 20 µg/ml anti-CD3 IgG, cross-linked, Jurkat cells, 24 h [3] [fold] | Molecule | other results
 |  |  |  | OKT3 (antibody) | Fold increase in CD69 expression [MFI normalized to neg. ctrl.], 1.25 µg/ml anti-CD3 IgG, cross-linked, Jurkat cells, 24 h [1]: 1.8 fold; Fold increase in CD69 expression [MFI normalized to neg. ctrl.], 5 µg/ml anti-CD3 IgG, cross-linked, Jurkat cells, 24 h [1]: 2.5 fold; Fold increase in CD69 expression [MFI normalized to neg. ctrl.], 20 µg/ml anti-CD3 IgG, cross-linked, Jurkat cells, 24 h [1]: 3.1 fold
 |  |  |  | TR66 (antibody) | Fold increase in CD69 expression [MFI normalized to neg. ctrl.], 1.25 µg/ml anti-CD3 IgG, cross-linked, Jurkat cells, 24 h [1]: 1.6 fold; Fold increase in CD69 expression [MFI normalized to neg. ctrl.], 5 µg/ml anti-CD3 IgG, cross-linked, Jurkat cells, 24 h [1]: 2.2 fold; Fold increase in CD69 expression [MFI normalized to neg. ctrl.], 20 µg/ml anti-CD3 IgG, cross-linked, Jurkat cells, 24 h [1]: 3 fold
123 |  |  |  | Construct 3 (anti-CD3×anti-IL5R scDb comprising the humanized variable domain of clone-03) (bispecific antibody) DIQMTQSPSSLSASVGDRVTITCQASQNIYSNLAWYQQKPGKAPKLLIYRASTLASGVPSRFSGSGSGTDFTLTISSLQPEDFATYYCQSNYGINYYGAAFGQGTKLTVLGGGGGSEVQLVESGGGLVQPGGSLRLSCAVSGFPLNRYAMLWVRQAPGKGLEWIGLITRADKKYYASWAKGRFTISKDNSKNTVYLQMNSLRAEDTAVYYCARRHYNTDGYPIAIGDLWGQGTLVTVSSGGGGSGGGGSGGGGSGGGGSDIQMTQSPSSLSASVGDRVTISCQSNENIYSNNRLSWYQQKPGKAPKLLIYSASSLASGVPSRFSGSGSGTDFTLTISDLEPEDFATYYCQGEFNCNSADCFTFGQGTKLTVLGGGGGSEVQLVESGGGLVQPGGSLRLSCAASGFSLSSYDMTWVRQAPGKGLEWIGIIYVSGSAYYASWAKGRFTISRDNSKNTVYLQMNSLRAEDTAVYYCARINYGLDLWGQGTLVTVSS | 
 | 2.7 | 5.1 | 5.3 | clone-06 (antibody, V domains shown) VH: QSVEESGGRLVTPGTPLTLTCTVSGFPLSSYAMIWVRQAPGKGLEWIGMILRAGNIYYASWVKGRVTISKTSTTVDLKITSPTTEDTATYFCARRHYNREGYPIGIGDLWGPGTLVTVSS VL: AQVLTQTPSSVSAAVGGTVTISCQSSESVYNNKRLSWFQQKPGQPPKQLIYTASSLASGVPSRFKGSGSGTQFTLTISDLECDDAATYYCQGEFTCSNADCFTFGGGTEVVVKG | 
 | 2.6 | 4.6 | 6.6 | clone-03 (antibody, V domains shown) VH: QSLEESGGRLVTPGTPLTLTCTVSGFPLNRYAMLWVRQAPGKGLEWIGLITRADKKYYASWAKGRFTISKTSTTVDLEITGPTTEDTATYFCARRHYNTDGYPIAIGDLWGPGTLVTVSS VL: AQVLTQTPSSVSAAVGGTVTISCQSNENIYSNNRLSWFQQKPGQPPNQLIYSASSLASGVPSRFKGSGSGTQFTLTISDLECDDAATYYCQGEFNCNSADCFTFGGGTEVVVKG | 
 | 2.6 | 3.5 | 7.8 | clone-04 (antibody, V domains shown) VH: QSLEESGGRLVKPDETLTLTCTVSGFPLSSYAMGWFRQAPGKGLEWIGMILRSDNTYYASWAKGRFTISKTSTTVDLKITSPTTEDTATYFCARRHYNASGNPIAIGDLWGPGTLVTVSS VL: AQVLTQTPSSVSAAVGGTVTINCQSSQSVYNNNRLSWFQQKPGQPPKLLIYTTSSLASGVPSRFKGSGSGTEFTLTISDLECADAATYYCQGEFSCSRADCFNFGGGTEVVVKG | 
 | 3.3 | 4.6 | 7.4 | clone-02 (antibody, V domains shown) VH: QSLEESGGRLVTPGTPLTLTCTVSGFPLSAYAMIWVRQAPGKGLEWIGMIIRSGTVYYANWAKGRFTISKTSTTVDLKITSPTTEDTATYFCARRHYNADGYPIGIGDLWGPGTLVTVSS VL: AQVLTQTPSSVSAVVGGTVTISCQSSESVYSNNRLSWFQQKPGQPPKLLIYSASTLASGVPSRFKGSGSGTQFTLTITDLECDDAATYFCQGEFSCSSVDCFSFGGGTEVVVKG | 
11.5 |  |  |  | Construct 1 (anti-CD3×anti-IL5R scDb comprising the humanized variable domain of clone-06) (bispecific antibody) DIQMTQSPSSLSASVGDRVTITCQASQNIYSNLAWYQQKPGKAPKLLIYRASTLASGVPSRFSGSGSGTDFTLTISSLQPEDFATYYCQSNYGINYYGAAFGQGTKLTVLGGGGGSEVQLVESGGGLVQPGGSLRLSCAASGFPLSSYAMIWVRQAPGKGLEWIGMILRAGNIYYASWVKGRFTISRDNSKNTVYLQMNSLRAEDTAVYYCARRHYNREGYPIGIGDLWGQGTLVTVSSGGGGSGGGGSGGGGSGGGGSDIQMTQSPSSLSASVGDRVTITCQSSESVYNNKRLSWYQQKPGKAPKLLIYTASSLASGVPSRFSGSGSGTDFTLTISSLQPEDFATYYCQGEFTCSNADCFTFGQGTKLTVLGGGGGSEVQLVESGGGLVQPGGSLRLSCAASGFSLSSYDMTWVRQAPGKGLEWIGIIYVSGSAYYASWAKGRFTISRDNSKNTVYLQMNSLRAEDTAVYYCARINYGLDLWGQGTLVTVSS | Potency to lyse target cells [EC50] (CHO-IL5R cells, human CD8+ T cells, 88 h) [4]: 0.1 nM; Potency to stimulate IL-2 secretion by T cells [EC50] (CD8+ T cells with CHO-IL5R cells, 16 h) [4]: 0.96 nM
29.6 |  |  |  | Construct 2 (anti-CD3×anti-IL5R scDb comprising the humanized variable domain of clone-02) (bispecific antibody) DIQMTQSPSSLSASVGDRVTITCQASQNIYSNLAWYQQKPGKAPKLLIYRASTLASGVPSRFSGSGSGTDFTLTISSLQPEDFATYYCQSNYGINYYGAAFGQGTKLTVLGGGGGSEVQLVESGGGLVQPGGSLRLSCAASGFPLSAYAMIWVRQAPGKGLEWIGMIIRSGTVYYANWAKGRFTISRDNSKNTVYLQMNSLRAEDTAVYYCARRHYNADGYPIGIGDLWGQGTLVTVSSGGGGSGGGGSGGGGSGGGGSDIQMTQSPSSLSASVGDRVTITCQSSESVYSNNRLSWYQQKPGKAPKLLIYSASTLASGVPSRFSGSGSGTDFTLTISSLQPEDFATYYCQGEFSCSSVDCFSFGQGTKLTVLGGGGGSEVQLVESGGGLVQPGGSLRLSCAASGFSLSSYDMTWVRQAPGKGLEWIGIIYVSGSAYYASWAKGRFTISRDNSKNTVYLQMNSLRAEDTAVYYCARINYGLDLWGQGTLVTVSS | Potency to stimulate IL-2 secretion by T cells [EC50] (CD8+ T cells with CHO-IL5R cells, 16 h) [4]: 5.67 nM
 | 2.6 | 4.2 | 6.2 | clone-10 (antibody, V domains shown) VH: QSLEESGGRLVTPGTPLTLTCTVSGFPLSSFAMLWVRQAPGKGLEWIGMIMRAHNMYYASWAKGRFTISKTSTTVDLEITSPTTEDTATYFCARRHYNTYGYPIAIGDLWGPGTLVTVSS VL: AQVLTQTPSSVSAAVGGTATISCQSNENIYSNNRLSWFQQKAGQPPNQLIYSASSLASGVPSRFKGSGSGTQFTLTISDLECDDAATYYCQGEFSCSSADCFTFGGGTEVVVKG | 
